B1: Saccharomyces cerevisiae thiamine pyrophosphokinase YOR143C (enzyme)
chain: GHHHQLSEECIENPERIKIGTDLINIRNKMNLKELIHPNEDENSTLLILNQKIDIPRPLFYKIWKLHDLKVCADGAANRLYDYLDDDETLRIKYLPNYIIGDLDSLSEKVYKYYRKNKVTIIKQTTQYSTDFTKCVNLISLHFNSPEFRSLISNKDNLQSNHGIELEKGIHTLYNTMTESLVFSKVTPISLLALGGIGGRFDQTVHSITQLYTLSENASYFKLCYMTPTDLIFLIKKNGTLIEYDPQFRNTCIGNCGLLPIGEATLVKETRGLKWDVKNWPTSVVTGRVSSSNRFVGDNCCFIDTKDDIILNVEIFVDKLIDFLQLDGDLEAA

How the values were obtained:
[1] = biological target: Candida albicans thiamine pyrophosphokinase CA1462 (Candida albicans); assay: SEC; gel filtration of the purified TPK proteins on a Sephacryl S200 HR column
[2] = biological target: the molecule itself; assay: as above

| Molecule | stoichiometry N [1] | stoichiometry N [2] |
| --- | --- | --- |
| Candida albicans thiamine pyrophosphokinase CA1462 (enzyme) | 2 | – |
| B1 | – | 2 |

— PMC2515308, “Structural characterization of CA1462, the Candida albicans thiamine pyrophosphokinase” (BMC Structural Biology, 2008)
